This passage reports stoichiometry N results from publication PMC3571714.

By stoichiometry N is commonly meant a count of units in the complex or per binding partner.

The target in assay [1] is A1T1-His6 (module 1 multi-domain construct of the nocardicin NRPS) (Nocardia uniformis subsp. tsuyamanensis ATCC 21806). Description: pull-down.
Assay [2] addresses A4T4-His6 (module 4 multi-domain construct of NocB) (Nocardia uniformis subsp. tsuyamanensis ATCC 21806). Description: pull-down.

As to “MbtH family protein NocI (untagged) (natural protein)”, the stoichiometry N in assay [1] and in assay [2] was 1 throughout.
